The supplement of paper PMC9112550, “Optimization of the antimicrobial peptide Bac7 by deep mutational scanning” (BMC Biology, 2022)

Test system: Escherichia coli TOP10
Test: shrunken log2 fold change of peptide-encoding DNA abundance (4.5 h post-induction vs induction); higher = less antimicrobial activity (less host growth inhibition)
Conditions: time post-induction: 4.5 h; library: site-saturation at positions 5, 18, 19, 20
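Also: peptides expressed intracellularly from a pBAD plasmid library in pooled LB shake-flask culture, induced with 0.3% L-arabinose, DNA abundance read by NGS, three biological replicates, DESeq2 with apeglm shrinkage.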

Row | Sequence | shrunken log2 fold change
1 | RRIRARPPRLPRPRPRPEKYPRP | 0.101
2 | RRIRPRPPRLPRPRPRPVFMPRP | -0.185
3 | RRIRKRPPRLPRPRPRPNDSPRP | -0.042
4 | RRIRMRPPRLPRPRPRPCTSPRP | 0.0228
5 | RRIRTRPPRLPRPRPRPNDHPRP | -0.0838
6 | RRIRFRPPRLPRPRPRPEPGPRP | 0.534
7 | RRIRLRPPRLPRPRPRPLDEPRP | -0.0999
8 | RRIRHRPPRLPRPRPRPSEWPRP | -0.0167
9 | RRIRQRPPRLPRPRPRPGSYPRP | -0.2
10 | RRIRRRPPRLPRPRPRPGTSPRP | 0.0636
11 | RRIRFRPPRLPRPRPRPQDQPRP | -0.0978
12 | RRIRLRPPRLPRPRPRPTIWPRP | 0.203
13 | RRIRHRPPRLPRPRPRPLARPRP | 0.113
14 | RRIRPRPPRLPRPRPRPEIMPRP | -0.0268
15 | RRIRLRPPRLPRPRPRPQQNPRP | -0.241
16 | RRIRLRPPRLPRPRPRPVKKPRP | 0.031
17 | RRIRARPPRLPRPRPRPCNHPRP | -0.177
18 | RRIRHRPPRLPRPRPRPLPDPRP | -0.299
19 | RRIRTRPPRLPRPRPRPEPKPRP | 0.376
20 | RRIRFRPPRLPRPRPRPAGCPRP | 0.229
21 | RRIRYRPPRLPRPRPRPIWDPRP | -0.13
22 | RRIRQRPPRLPRPRPRPEAAPRP | 0.751
23 | RRIRFRPPRLPRPRPRPTPKPRP | 0.681
24 | RRIRSRPPRLPRPRPRPCSQPRP | -0.214
25 | RRIRVRPPRLPRPRPRPYANPRP | 0.0231

Row | Sequence | shrunken log2 fold change
26 | RRIRGRPPRLPRPRPRPFLCPRP | 0.231
27 | RRIRIRPPRLPRPRPRPVFYPRP | -0.333
28 | RRIRTRPPRLPRPRPRPEEKPRP | 0.167
29 | RRIRPRPPRLPRPRPRPHWIPRP | -0.212
30 | RRIRLRPPRLPRPRPRPKCGPRP | 0.338
31 | RRIRARPPRLPRPRPRPFVIPRP | 0.0345
32 | RRIRQRPPRLPRPRPRPHNMPRP | -0.283
33 | RRIRPRPPRLPRPRPRPQKQPRP | -0.294
34 | RRIRMRPPRLPRPRPRPALHPRP | 0.791
35 | RRIRARPPRLPRPRPRPDSGPRP | 0.18
36 | RRIRERPPRLPRPRPRPWMVPRP | -0.685
37 | RRIRGRPPRLPRPRPRPFFMPRP | 0.374
38 | RRIRFRPPRLPRPRPRPGVEPRP | 0.112
39 | RRIRTRPPRLPRPRPRPNWVPRP | -0.159
40 | RRIRGRPPRLPRPRPRPVNPPRP | 0.127
41 | RRIRIRPPRLPRPRPRPHNDPRP | -0.55
42 | RRIRERPPRLPRPRPRPQGWPRP | 0.114
43 | RRIRERPPRLPRPRPRPGPMPRP | 0.224
44 | RRIRYRPPRLPRPRPRPAEKPRP | -0.0964
45 | RRIRNRPPRLPRPRPRPDGTPRP | -0.128
46 | RRIRIRPPRLPRPRPRPCIPPRP | -0.307
47 | RRIRERPPRLPRPRPRPYHEPRP | -3.17
48 | RRIRIRPPRLPRPRPRPGLWPRP | 0.0804
49 | RRIRCRPPRLPRPRPRPPKVPRP | -0.138
50 | RRIRNRPPRLPRPRPRPDNYPRP | -0.341

Row | Sequence | shrunken log2 fold change
51 | RRIRYRPPRLPRPRPRPEAQPRP | 0.151
52 | RRIRRRPPRLPRPRPRPDYMPRP | -0.384
53 | RRIRCRPPRLPRPRPRPWSVPRP | -0.34
54 | RRIRERPPRLPRPRPRPDRIPRP | -0.311
55 | RRIRGRPPRLPRPRPRPEMNPRP | 0.999
56 | RRIRSRPPRLPRPRPRPQCAPRP | 0.233
57 | RRIRSRPPRLPRPRPRPHAEPRP | 0.156
58 | RRIRPRPPRLPRPRPRPREDPRP | 0.134
59 | RRIRPRPPRLPRPRPRPRVYPRP | -0.311
60 | RRIRFRPPRLPRPRPRPFKHPRP | -0.2
61 | RRIRFRPPRLPRPRPRPRHLPRP | -0.0297
62 | RRIRWRPPRLPRPRPRPCPYPRP | -0.271
63 | RRIRARPPRLPRPRPRPASIPRP | 0.0775
64 | RRIRVRPPRLPRPRPRPNNSPRP | -0.309
65 | RRIRWRPPRLPRPRPRPFVQPRP | -0.184
66 | RRIRGRPPRLPRPRPRPMMSPRP | 0.136
67 | RRIRVRPPRLPRPRPRPTGKPRP | -0.116
68 | RRIRRRPPRLPRPRPRPRKWPRP | 0.319
69 | RRIRVRPPRLPRPRPRPKWAPRP | 0.269
70 | RRIRRRPPRLPRPRPRPNCPPRP | 0.039
71 | RRIRQRPPRLPRPRPRPHADPRP | -0.43
72 | RRIRDRPPRLPRPRPRPHPSPRP | 0.0703
73 | RRIRDRPPRLPRPRPRPYNAPRP | -0.0556
74 | RRIRERPPRLPRPRPRPHVDPRP | -0.00242
75 | RRIRQRPPRLPRPRPRPDEKPRP | 0.02

Row | Sequence | shrunken log2 fold change
76 | RRIRVRPPRLPRPRPRPYECPRP | -1.34
77 | RRIRMRPPRLPRPRPRPQDAPRP | 0.0668
78 | RRIRRRPPRLPRPRPRPDGMPRP | 0.0388
79 | RRIRMRPPRLPRPRPRPSQDPRP | 0.224
80 | RRIRGRPPRLPRPRPRPIAIPRP | 0.216
81 | RRIRHRPPRLPRPRPRPDCEPRP | -0.0807
82 | RRIRRRPPRLPRPRPRPYHAPRP | -0.0669
83 | RRIRERPPRLPRPRPRPTTQPRP | 0.299
84 | RRIRRRPPRLPRPRPRPEANPRP | 0.78
85 | RRIRFRPPRLPRPRPRPGNLPRP | -0.13
86 | RRIRCRPPRLPRPRPRPLVFPRP | -0.317
87 | RRIRCRPPRLPRPRPRPQVAPRP | 0.0924
88 | RRIRNRPPRLPRPRPRPSSNPRP | -0.416
89 | RRIRIRPPRLPRPRPRPQCFPRP | 0.0204
90 | RRIRRRPPRLPRPRPRPQLEPRP | 0.059
91 | RRIRMRPPRLPRPRPRPKIIPRP | 0.102
92 | RRIRHRPPRLPRPRPRPYACPRP | -0.225
93 | RRIRCRPPRLPRPRPRPHNHPRP | -0.625
94 | RRIRSRPPRLPRPRPRPPYAPRP | 0.0164
95 | RRIRRRPPRLPRPRPRPWGMPRP | 0.137
96 | RRIRNRPPRLPRPRPRPTNSPRP | -0.279
97 | RRIRNRPPRLPRPRPRPMWYPRP | -0.0267
98 | RRIRLRPPRLPRPRPRPLFFPRP | 0.417
99 | RRIRARPPRLPRPRPRPCGIPRP | 0.23
100 | RRIRPRPPRLPRPRPRPNEPPRP | 0.146

Row | Sequence | shrunken log2 fold change
101 | RRIRYRPPRLPRPRPRPHKEPRP | 0.103
102 | RRIRTRPPRLPRPRPRPMLGPRP | -0.0672
103 | RRIRSRPPRLPRPRPRPNNFPRP | -0.667
104 | RRIRPRPPRLPRPRPRPLGTPRP | 0.125
105 | RRIRVRPPRLPRPRPRPALTPRP | 0.117
106 | RRIRCRPPRLPRPRPRPDTMPRP | 0.00262
107 | RRIRSRPPRLPRPRPRPEVGPRP | 0.726
108 | RRIRSRPPRLPRPRPRPNEFPRP | 0.00763
109 | RRIRWRPPRLPRPRPRPNMWPRP | 0.0493
110 | RRIRQRPPRLPRPRPRPAFNPRP | 0.18
111 | RRIRIRPPRLPRPRPRPSCYPRP | -0.392
112 | RRIRPRPPRLPRPRPRPRTIPRP | 0.206
113 | RRIRYRPPRLPRPRPRPDVEPRP | -0.00174
114 | RRIRARPPRLPRPRPRPDKTPRP | -0.00345
115 | RRIRARPPRLPRPRPRPCRWPRP | 0.26
116 | RRIRTRPPRLPRPRPRPNLQPRP | -0.0672
117 | RRIRDRPPRLPRPRPRPCTYPRP | -0.0116
118 | RRIRNRPPRLPRPRPRPIGKPRP | -0.0902
119 | RRIRARPPRLPRPRPRPLDMPRP | -0.00812
120 | RRIRMRPPRLPRPRPRPDDFPRP | 0.938
121 | RRIRCRPPRLPRPRPRPPFPPRP | 0.302
122 | RRIRERPPRLPRPRPRPMPRPRP | 0.0247
123 | RRIRMRPPRLPRPRPRPCEMPRP | 0.084
124 | RRIRCRPPRLPRPRPRPFPRPRP | 0.134
125 | RRIRDRPPRLPRPRPRPDYSPRP | 0.0125

Row | Sequence | shrunken log2 fold change
126 | RRIRFRPPRLPRPRPRPVGCPRP | -0.0325
127 | RRIRGRPPRLPRPRPRPNESPRP | 0.302
128 | RRIRSRPPRLPRPRPRPGDWPRP | 0.223
129 | RRIRRRPPRLPRPRPRPHHPPRP | -0.0853
130 | RRIRNRPPRLPRPRPRPCMEPRP | -0.206
131 | RRIRMRPPRLPRPRPRPWPIPRP | -0.00141
132 | RRIRQRPPRLPRPRPRPSFRPRP | -0.578
133 | RRIRRRPPRLPRPRPRPNGHPRP | 0.193
134 | RRIRMRPPRLPRPRPRPAPSPRP | 1.28
135 | RRIRLRPPRLPRPRPRPTRNPRP | 0.24
136 | RRIRGRPPRLPRPRPRPWETPRP | 0.272
137 | RRIRDRPPRLPRPRPRPQTLPRP | 0.0519
138 | RRIRFRPPRLPRPRPRPAAYPRP | -0.341
139 | RRIRNRPPRLPRPRPRPDPLPRP | -0.0328
140 | RRIRGRPPRLPRPRPRPDTRPRP | 0.162
141 | RRIRRRPPRLPRPRPRPTWNPRP | 0.951
142 | RRIRDRPPRLPRPRPRPGPWPRP | 0.287
143 | RRIRARPPRLPRPRPRPWCLPRP | -0.214
144 | RRIRTRPPRLPRPRPRPVLRPRP | 0.11
145 | RRIRMRPPRLPRPRPRPMHAPRP | 0.327
146 | RRIRARPPRLPRPRPRPNGDPRP | 0.147
147 | RRIRFRPPRLPRPRPRPKVMPRP | -0.178
148 | RRIRWRPPRLPRPRPRPCSWPRP | 0.0533
149 | RRIRRRPPRLPRPRPRPSTDPRP | -0.14
150 | RRIRIRPPRLPRPRPRPRKKPRP | 0.247
